Patent US20220281959A1 (DIACCURATE, published 2022)
Substitutions are numbered along the chain they refer to. Ends that are not written are not given here.

B1: anti-PEP3 mAb 5E12 (antibody, V domains shown)
VH: QIQLVQSGPELKKPGETVKISCKASGYTFRTYGMSWVKQAPGKGLKWMGWINTYSGVPRYVDDFKGRFALSLETSASTAYLQINNLKSEDTATYFCVREGYSYYGSSFHTMDYWGQGTSVTVSS
VL: DIQMTQTPLTLSVTIGHPASISCKSSQSLLHTNGKIYLNWLLQRPGQSPKRLIYLVSKLDSGVPDRFSGSGSGTDFTLKISRVEAEDLGVYYCLQSTHFPQTFGGGTKLEIK
B2: anti-PEP3 mAb 3A2 (antibody, V domains shown)
VH: QVQLQQPGAELVKPGASVKLSCKASGYIFTNYWMHWVRQRPGQGPEWIGMIHPNRGDLHYSEKFNNKATLTVDKSSSTAYMQLNSLASEDSAVYFCARAGLGVFDYWGQGSTLTVSS
VL: DVVMTQTPLSLPVSLGDQVSMSCRSSQSIEHSNRNTYLEWYLHKPGQAPQLLIYGVSNRFTGVPDRFSGSGSGTDFTLKISRVEAEDMGVYHCLQGTHVPFTFGSGTKLEIK
B3: anti-PEP3 mAb 9B12 (antibody, V domains shown)
VH: QVQLQQSGPELVKPGASVKISCKASGYGFSDSWMNWVKQRPGKGLDWIGRIYPGDGDTDYNGKFKDKATLTADKSSTTAYMQLSSLTSEDSAVYFCAYLGHWGQGTLVTVSA
VL: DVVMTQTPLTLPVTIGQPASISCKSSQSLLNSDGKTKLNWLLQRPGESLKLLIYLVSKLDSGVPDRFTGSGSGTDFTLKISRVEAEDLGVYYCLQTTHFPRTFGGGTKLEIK
B4: anti-PEP3 gp41 mAb 4G1 (antibody, V domains shown)
VL: DVVMTQTPLSLCVSLGDQASISCRTSQSIVHSNRYTYLEWYLQKPGQPLKLLIYGIANRFSGVPDRFSGSGSGTDFTLKISRVEAEDMGVYYCLQGTHVPFTFGSGTKLEIK
V domain: QVQLQQPGAELVKPGASVKLSCKASGYIFRNYWMHWVKQRPGQGLEWIGMIHPNSDITHYNEKFKNRATLTVDKSSSTAYMQLNSLTSEDSAVYYCARGGLGVFDYWGQGTALRVSS
notes: Also used biotinylated (4G1-biot) as detection antibody; also called 4G1 anti-PEP3 mAb; 4G1 mAb
B5: anti-PEP3 mAb 8D5 (antibody, V domains shown)
VH: QVQLQQPGAELIEPGTSVKLSCKASGYTFTTYWMHWVKQRPGQGLEWIGMIHPNSGDTFYNENFKNKATLTVDISSSTVYMELSSLTSEDSAVYSCVKAGTGALDYWGQGTTLTVSS
VL: B4 VL with C12P, T25S, K44R, P48S, I56V, A57S, T77I, L94F
B6: anti-PEP3 mAb 15B4 (antibody, V domains shown)
VH: QVQLQQSGPELVRPGTSVKISCKAPGYSFTSHWMQWLRQRPGQGLEWIGEIFPGSGKTYYNEKFKDKATLTADTSSTTVYMQFSSLTSEDSAVYFCASDYDGGDYWGQGTTLTVSS
VL: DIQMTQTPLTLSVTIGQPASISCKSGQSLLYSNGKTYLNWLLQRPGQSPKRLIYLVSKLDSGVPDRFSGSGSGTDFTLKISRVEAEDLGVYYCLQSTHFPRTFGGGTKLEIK

Tests used:
[1] = biological target: T1, HIV-1 MN gp41 recombinant protein produced in E. coli (565-771Delta642-725) (HIV-1 MN); assay: ELISA, hybridoma supernatant pure, coated MN gp41
T1 construct: range 565-771; Residues 642-725 are deleted; also called MN gp41 (produced in E. coli); MN gp41 protein

[2] = biological target: T2, BSA-PEP3 peptide (HIV-1 MN strain, also: conjugated to BSA); assay: ELISA, hybridoma supernatant pure, coated BSA-PEP3
T2 construct: The KLH immunogen carried an added N-terminal Cys
T2 peptide: PWNASWSNKSLDDIW

[3] = biological target: T1, HIV-1 MN gp41 recombinant protein …; assay: ELISA, hybridoma supernatant 1/10, coated MN gp41
[4] = biological target: T2, BSA-PEP3 peptide; assay: ELISA, hybridoma supernatant 1/10, coated BSA-PEP3
[5] = biological target: T3, HXB2 gp41 recombinant protein (a.a. 534-681) (HIV-1 HXB2, UniProt P04578 534-681); assay: sandwich ELISA, mAb capture, gp41 titrated, biotinylated goat pAb detection
T3 construct: Bought; tags not described; also called ABIN1605865

[6] = biological target: T3, HXB2 gp41 recombinant protein (a.a. …); assay: sandwich ELISA, 72D7 capture 10 µg/ml, HXB2 gp41 titrated, biotinylated 4G1 detection 20 µg/ml

Row | Binder | ELISA screening signal [1] | ELISA screening signal [2] | ELISA screening signal [3] | ELISA screening signal [4] | minimal amount of gp41 detected [5] [ng/mL] | EC50 [6] [µg/mL]
1 | B1 | 2.61 | 3 | 2.71 | 3.21 |  | 
2 | B2 | 2.63 | 2.93 | 2.75 | 3.06 | ~1 | 
3 | B3 | 0.054 | 2.79 | 0.047 | 2.78 |  | 
4 | B4 |  |  |  |  | ~1 | 0.34
5 | B5 | 2.58 | 2.51 | 2.55 | 2.69 | ~1 | 
6 | B6 | 1.81 | 2.73 | 1.45 | 2.59 | > 10 | 
